In experiment [1] the target is a native host protein. Put plainly: Kd determination, method not stated.
Experiment [2] deals with a native host protein. As to the kind of experiment: Kd determination, method not stated; reference wild type PmSLP-1 (SEQ ID NO 2).

A value given as a limit tells only on which side of the number the result lay.

Broadly, the Kd is a measure of binding affinity in units of concentration. High values mean weaker binding, low ones tighter binding.

In experiment [1], “modified PmSLP-1 having SEQ. ID NO: 65 (V214D mutation)” returned a dissociation constant Kd of less than 2000 nM. Besides, the factor by which the Kd exceeds the Kd of the native non-modified PmSLP in experiment [2] was more than 500 fold.
In the same order, the values of “modified PmSLP-1 having SEQ. ID NO: 67 (E240A mutation)” are less than 2000 nM and more than 500 fold.
“wild type PmSLP-1 protein (SEQ. ID NO: 2)” came in with a dissociation constant (Kd) in experiment [1] of 30 nM.

These data come from patent US20250263448A1.
